{"source": "patent US20050032696A1", "about": "(published 2005)", "target": "the molecule itself", "test": "yeast two-hybrid mating assay, β-galactosidase reporter", "protocol": "The dual reporter YM4271 yeast strains containing the USE-B1 and USE-B1b tandem repeats have been described previously (O'Mahoney et al. 1998). A two-hybrid mating assay was used to examine the transactivation and dimerisation functions of hMusTRD1α1. The yeast reporter strain Y190 (CLONTECH) was transformed with 1 μg of pAS2-1, pAS2-1:hMusTRD1α1, or pAS2-1:ΔhMusTRD1α1 using an alkali cation method (BIO 101, Inc., La Jolla, Calif.) and mated with Y187 cells carrying either pACTII, pGAD10:hMusTRD1α1 or, pACTII:ΔhMusTRD1α1. Transformants were selected on complete synthetic media plates lacking tryptophan and leucine (BIO 101). Diploid cells were grown to saturation and used to inoculate test cultures (OD₆₀₀=0.1) that were grown for a further 24 h at 30° C. Cells were harvested in 100 μl Breaking Buffer (100 mM Tris-HCl pH 8, 20% glycerol, 5 mM PMSF, 2 mM DTT) and lysed by vortexing with glass beads. Protein concentration was determined by the Bradford method (Bio-Rad Laboratories, Sydney, NSW). Protein extracts (20 μg) were assayed for β-galactosidase activity with a chemiluminescence detection kit (CLONTECH) and a Turner Designs 20/20 luminometer (Sunnyvale, Calif.).", "data": [{"protein": "ΔhMusTRD1α1 (truncated human MusTRD1α1, amino acids 1-458) (other, the fusion parts are not written into the chain; In the COS-7 Western blot it was expressed from pCI-neo; also called ΔMusTRD; hMusTRD1α1458aa) MALLGKRCDVPTNGCGPDRWNSAFTRKDEIITSLVSALDSMCSALSKLNAEVACVAVHDESAFVVGTEKGRMFLNARKELQSDFLRFCRGPPWKDPEAEHPKKVQRGEGGGRSLPRSSLEHGSDVYLLRKMVEEVFDVLYSEALGRASVVPLPYERLLREPGLLAVQGLPEGLAFRRPAEYDPKALMAILEHSHRIRFKLKRPLEDGGRDSKALVELNGVSLIPKGSRDCGLHGQAPKVPPQDLPPTATSSSMASFLYSTALPNHAIRELKQEAPSCPLAPSDLGLSRPMPEPKATGAQDFSDCCGQKPTGPGGPLIQNVHASKRILFSIVHDKSEKWDAFIKETEDINTLRECVQILFNSRYAEALGLDHMVPVPYRKIACDPEAVEIVGIPDKIPFKRPCTYGVPKLKRILEERHSIHFIIKRMFDERIFTGNKFTKDTTKLEPASPPEDTSAEVS", "values": [{"measurement": "binding result", "value": "binds"}]}]}
